B1: Mitogen-activated protein kinase 13 (Homo sapiens), O15264 (parent)
chain: MSLIRKKGFYKQDVNKTAWELPKTYVSPTHVGSGAYGSVCSAIDKRSGEKVAIKKLSRPFQSEIFAKRAYRELLLLKHMQHENVIGLLDVFTPASSLRNFYDFYLVMPFMQTDLQKIMGMEFSEEKIQYLVYQMLKGLKYIHSAGVVHRDLKPGNLAVNEDCELKILDFGLARHADAEMTGYVVTRWYRAPEVILSWMHYNQTVDIWSVGCIMAEMLTGKTLFKGKDYLDQLTQILKVTGVPGTEFVQKLNDKAAKSYIQSLPQTPRKDFTQLFPRASPQAADLLEKMLELDVDKRLTAAQALTHPFFEPFRDPEEETEAQQPFDDSLEHEKLTVDEWKQHIYKEIVNFSPIARKDSRRRSGMKL

Variants of: B1
Conditions: with stat3_human STAT3, P40763
stat3_human STAT3, P40763, sequence (P40763 whole entry): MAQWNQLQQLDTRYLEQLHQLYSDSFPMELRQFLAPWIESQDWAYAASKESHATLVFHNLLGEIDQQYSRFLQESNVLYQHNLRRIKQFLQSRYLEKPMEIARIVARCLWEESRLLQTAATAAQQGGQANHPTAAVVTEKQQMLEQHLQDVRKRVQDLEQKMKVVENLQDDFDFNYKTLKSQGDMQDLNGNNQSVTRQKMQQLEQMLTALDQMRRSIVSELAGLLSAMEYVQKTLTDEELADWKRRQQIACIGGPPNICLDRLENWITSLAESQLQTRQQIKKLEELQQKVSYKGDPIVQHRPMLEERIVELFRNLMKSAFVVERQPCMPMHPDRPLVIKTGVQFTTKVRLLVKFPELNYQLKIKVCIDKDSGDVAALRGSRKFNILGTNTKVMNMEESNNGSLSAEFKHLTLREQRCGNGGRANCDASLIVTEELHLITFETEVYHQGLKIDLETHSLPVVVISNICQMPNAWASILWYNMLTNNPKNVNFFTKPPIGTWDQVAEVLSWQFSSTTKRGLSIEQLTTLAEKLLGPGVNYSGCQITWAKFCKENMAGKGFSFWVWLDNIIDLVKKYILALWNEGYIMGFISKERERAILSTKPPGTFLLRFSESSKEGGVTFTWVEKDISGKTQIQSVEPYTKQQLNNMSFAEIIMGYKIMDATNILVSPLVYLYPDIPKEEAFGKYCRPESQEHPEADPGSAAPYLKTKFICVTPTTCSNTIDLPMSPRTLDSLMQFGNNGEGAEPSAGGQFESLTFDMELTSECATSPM

Variant	effect of a mutation on the interaction
MSLIRKKGFYKQDVNKTAWELPKTYVSPTHVGSGAYGSVCSAIDKRSGEKVAIKKLSRPFQSEIFAKRAYRELLLLKHMQHENVIGLLDVFTPASSLRNFYDFYLVMPFMQTDLQKIMGMEFSEEKIQYLVYQMLKGLKYIHSAGVVHRDLKPGNLAVNEDCELKILDFGLARHADAEMAGAVVTRWYRAPEVILSWMHYNQTVDIWSVGCIMAEMLTGKTLFKGKDYLDQLTQILKVTGVPGTEFVQKLNDKAAKSYIQSLPQTPRKDFTQLFPRASPQAADLLEKMLELDVDKRLTAAQALTHPFFEPFRDPEEETEAQQPFDDSLEHEKLTVDEWKQHIYKEIVNFSPIARKDSRRRSGMKL [T180A;Y182A]	with no effect
